The values below come from publication PMC4865918, “Inhibition of PRL-2·CNNM3 Protein Complex Formation Decreases Breast Cancer Proliferation and Tumor Growth*” (The Journal of Biological Chemistry, 2016).

In the assay the target is T1, His-PRL-2 (human, UniProt Q12974 1-167).
T1 construct: human PRL-2 (PTP4A2), 19-kDa construct; also called recombinant PRL-2; 19-kDa PRL-2 construct; source: Escherichia coli BL21, purified
T1 sequence (looked up): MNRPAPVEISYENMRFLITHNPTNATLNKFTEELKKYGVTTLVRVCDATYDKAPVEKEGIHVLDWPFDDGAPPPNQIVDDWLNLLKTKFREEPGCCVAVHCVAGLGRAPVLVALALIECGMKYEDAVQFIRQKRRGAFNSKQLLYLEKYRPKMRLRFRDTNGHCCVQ
Put plainly: pull-down; in vitro; 20 ng GST-CBS on glutathione-Sepharose beads, equimolar His-PRL-2 (~10 ng), 4 °C 1 h; 150 mM NaCl, 20 mM Tris, 1% Triton-X, 5 mM 2-mercaptoethanol; without inhibitor (control). The settings on record: both partners purified.

B1: GST-CBS (Bateman module of human CNNM3, amino acids 302-452) (domain or fragment, UniProt Q8NE01 302-452, looked up)
chain: SDLSKGVLRCRTVEDVLTPLEDCFMLDASTVLDFGVLASIMQSGHTRIPVYEEERSNIVDMLYLKDLAFVDPEDCTPLSTITRFYNHPLHFVFNDTKLDAVLEEFKRGKSHLAIVQKVNNEGEGDPFYEVLGLVTLEDVIEEIIRSEILDE
notes: human CNNM3, Bateman module, amino acids 302-452; also called GST-2xCBS; CBS tandem domain of CNNM3; source: Escherichia coli BL21, purified
For the molecule B1, the binding result is listed as “binds”.
